Experimental data from PMC2737688.

Columns and labels:
[1] = biological target: BK α subunit (mSlo1) pseudo-wild-type with N200C (S3-S4 loop) (mouse); test: cross-linking
[2] = biological target: BK α subunit (mSlo1) pseudo-wild-type with K296C (S6 flank) (mouse); test: cross-linking

B1: BK β4 subunit pseudo-wild-type with A43C (TM1 flank), 3X FLAG (natural protein)
chain: MAKLRVAYEYTEAEDKSIRLGLFLIISGVVSLFIFGFAWLSPCLQDLQATEANCTVLSVQQIGEVFECTFTCGADCRGTSQYPCVQVYVNNSESNSRALLHSDEHQLLTNPKCSYIPPCKRENQKNLESVMNWQQYWKDEIGSQPFTCYFNQHQRPDDVLLHRTHDEIVLLHAFLWPLVTFVVGVLIVVLTICAKSLAVKAEAMKKRKFS
Q: How did the extent of disulfide crosslinking [1] turn out when B1 was run?
A: 30%

B2: BK β4 subunit pseudo-wild-type with V169C (TM2 flank), 3X FLAG (natural protein)
chain: MAKLRVAYEYTEAEDKSIRLGLFLIISGVVSLFIFGFAWLSPALQDLQATEANCTVLSVQQIGEVFECTFTCGADCRGTSQYPCVQVYVNNSESNSRALLHSDEHQLLTNPKCSYIPPCKRENQKNLESVMNWQQYWKDEIGSQPFTCYFNQHQRPDDVLLHRTHDEICLLHAFLWPLVTFVVGVLIVVLTICAKSLAVKAEAMKKRKFS
Q: Which extent of disulfide crosslinking [2] does the source give for B2 here?
A: < 30%
